Results on one molecule are retold here after patent publication US20140106352A1 (DUKE UNIVERSITY, published 2014).

The target of this test is T1, nephrin (human, UniProt O60500 23-1241).
T1 construct: whole, on cells; Endogenous protein in fixed podocytes; also called NPHS1
T1 sequence (looked up): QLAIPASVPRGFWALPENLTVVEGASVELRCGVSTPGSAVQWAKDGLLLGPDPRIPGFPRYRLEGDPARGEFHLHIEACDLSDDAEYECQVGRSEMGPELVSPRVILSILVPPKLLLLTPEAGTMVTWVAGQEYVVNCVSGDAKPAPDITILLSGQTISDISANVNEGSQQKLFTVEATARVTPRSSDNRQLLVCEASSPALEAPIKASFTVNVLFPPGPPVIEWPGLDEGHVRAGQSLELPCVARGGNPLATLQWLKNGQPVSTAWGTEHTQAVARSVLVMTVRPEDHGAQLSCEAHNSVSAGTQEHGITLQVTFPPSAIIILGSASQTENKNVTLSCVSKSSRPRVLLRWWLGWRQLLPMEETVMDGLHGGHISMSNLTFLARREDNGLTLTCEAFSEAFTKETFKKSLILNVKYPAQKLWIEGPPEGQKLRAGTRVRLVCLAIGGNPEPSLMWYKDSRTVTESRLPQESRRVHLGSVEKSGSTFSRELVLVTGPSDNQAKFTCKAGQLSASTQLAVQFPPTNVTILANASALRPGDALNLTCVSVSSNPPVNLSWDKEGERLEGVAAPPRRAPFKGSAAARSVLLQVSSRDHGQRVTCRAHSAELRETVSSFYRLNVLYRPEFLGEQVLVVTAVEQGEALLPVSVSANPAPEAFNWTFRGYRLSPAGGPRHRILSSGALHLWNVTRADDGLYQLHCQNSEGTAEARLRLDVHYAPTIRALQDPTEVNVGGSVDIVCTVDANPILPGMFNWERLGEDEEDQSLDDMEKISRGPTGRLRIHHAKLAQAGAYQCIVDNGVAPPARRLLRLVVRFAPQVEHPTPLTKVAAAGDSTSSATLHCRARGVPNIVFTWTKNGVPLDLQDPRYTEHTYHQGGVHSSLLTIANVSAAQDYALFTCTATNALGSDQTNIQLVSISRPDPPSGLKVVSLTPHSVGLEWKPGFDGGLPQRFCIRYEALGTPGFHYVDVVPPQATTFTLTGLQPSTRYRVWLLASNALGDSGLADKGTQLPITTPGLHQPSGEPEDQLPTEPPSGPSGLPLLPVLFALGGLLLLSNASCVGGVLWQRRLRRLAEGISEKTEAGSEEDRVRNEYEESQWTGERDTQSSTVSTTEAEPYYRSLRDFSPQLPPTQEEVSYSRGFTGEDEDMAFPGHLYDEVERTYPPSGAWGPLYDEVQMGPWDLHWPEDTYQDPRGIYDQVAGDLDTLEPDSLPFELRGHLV
Nature of the test: only co-localisation by immunofluorescence in immortalized human podocytes (FIG. 3); no direct binding assay. The procedure: Endogenous anillin protein staining is shown in red. Co-immunolabeling for anti-CD2AP (A) anti-RhoA (B), anti-nephrin (C) anti-INF2 (D) and anti-F-actin are shown in green. Cell nuclei are stained with DAPI (blue). Anillin is strongly expressed in both the nucleus and cytoplasm and co-localizes with CD2AP, RhoA, nephrin, INF2, F-actin and TRPC6, in cultured immortalized human podocytes. IgG served as the control antibody (0).
Immortalized human podocytes were cultured on collagen I-coated coverslips (BD Biosciences) and treated as indicated. Cells were then fixed with 4% paraformaldehyde in PBS (Sigma). Podocytes were then washed twice with ice cold PBS prior to permeabilization with 0.1% Triton X-100 in PBS. Cells were then washed with ice cold PBS twice and blocked with buffer containing 5% goat serum prior to incubation with rabbit polyclonal Anillin antibody (Bethyl Laboratories, Montgomery, Tex.), mouse monoclonal Rho A antibody (Abeam), mouse monoclonal nephrin antibody (Abgent, Inc, San Diego, Calif.), and mouse polyclonal CD2AP antibody (Santa Cruz Biotechnologies, Santa Cruz, Calif.) overnight at 4° C. Cells were then washed with ice cold PBS and secondary Alexa Flora 488 antibody was applied (invitrogen) at a concentration of 1:1,000 for 1 hour at room temperature. […]

B1: anillin (ANLN), wild-type, endogenous in immortalized human podocytes (other)
chain: MDPFTEKLLERTRARRENLQRKMAERPTAAPRSMTHAKRARQPLSEASNQQPLSGGEEKSCTKPSPSKKRCSDNTEVEVSNLENKQPVESTSAKSCSPSPVSPQVQPQAADTISDSVAVPASLLGMRRGLNSRLEATAASSVKTRMQKLAEQRRRWDNDDMTDDIPESSLFSPMPSEEKAASPPRPLLSNASATPVGRRGRLANLAATICSWEDDVNHSFAKQNSVQEQPGTACLSKFSSASGASARINSSSVKQEATFCSQRDGDASLNKALSSSADDASLVNASISSSVKATSPVKSTTSITDAKSCEGQNPELLPKTPISPLKTGVSKPIVKSTLSQTVPSKGELSREICLQSQSKDKSTTPGGTGIKPFLERFGERCQEHSKESPARSTPHRTPIITPNTKAIQERLFKQDTSSSTTHLAQQLKQERQKELACLRGRFDKGNIWSAEKGGNSKSKQLETKQETHCQSTPLKKHQGVSKTQSLPVTEKVTENQIPAKNSSTEPKGFTECEMTKSSPLKITLFLEEDKSLKVTSDPKVEQKIEVIREIEMSVDDDDINSSKVINDLFSDVLEEGELDMEKSQEEMDQALAESSEEQEDALNISSMSLLAPLAQTVGVVSPESLVSTPRLELKDTSRSDESPKPGKFQRTRVPRAESGDSLGSEDRDLLYSIDAYRSQRFKETERPSIKQVIVRKEDVTSKLDEKNNAFPCQVNIKQKMQELNNEINMQQTVIYQASQALNCCVDEEHGKGSLEEAEAERLLLIATGKRTLLIDELNKLKNEGPQRKNKASPQSEFMPSKGSVTLSEIRLPLKADFVCSTVQKPDAANYYYLIILKAGAENMVATPLASTSNSLNGDALTFTTTFTLQDVSNDFEINIEVYSLVQKKDPSGLDKKKKTSKSKAITPKRLLTSITTKSNIHSSVMASPGGLSAVRTSNFALVGSYTLSLSSVGNTKFVLDKVPFLSSLEGHIYLKIKCQVNSSVEERGFLTIFEDVSGFGAWHRRWCVLSGNCISYWTYPDDEKRKNPIGRINLANCTSRQIEPANREFCARRNTFELITVRPQREDDRETLVSQCRDTLCVTKNWLSADTKEERDLWMQKLNQVLVDIRLWQPDACYKPIGKP
notes: Endogenous intracellular protein stained in fixed, permeabilised immortalized human podocytes
Regarding B1, the binding result is recorded as “binds”.
